Earlier results, collected in PMC11391413.
Where two headings read alike, the source gives them in different places.

Assays:
SOS1 S4 (Homo sapiens) [1] = molecular target: SOS1 S4 (Homo sapiens)
SOS1 S2 (Homo sapiens) [2] = molecular target: SOS1 S2 (Homo sapiens)
[3] = molecular target: SOS1 S10 PRM (Homo sapiens) (UniProt Q07889); test: NMR
[4] = molecular target: SOS1 S4 PRM (Homo sapiens); test: NMR
[5] = molecular target: SOS1 S7 PRM (Homo sapiens) (UniProt Q07889); test: NMR
[6] = molecular target: SOS1 S8 PRM (Homo sapiens) (UniProt Q07889); test: NMR
SOS1 S4 (Homo sapiens) [7] = molecular target: SOS1 S4 (Homo sapiens); remark: listed apart in the source
SOS1 S2 (Homo sapiens) [8] = molecular target: SOS1 S2 (Homo sapiens); remark: listed apart in the source

Chain of GRB2 NSH3 (P62993 1-58): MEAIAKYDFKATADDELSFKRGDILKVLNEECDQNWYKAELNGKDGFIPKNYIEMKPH
Chain of GRB2 CSH3 (P62993 156-215): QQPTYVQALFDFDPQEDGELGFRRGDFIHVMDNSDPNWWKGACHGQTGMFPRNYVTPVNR

Kd (SOS1 S1 (Homo sapiens)) [µM]	Kd (SOS1 S4 (Homo sapiens) [1]) [µM]	Kd (SOS1 S2 (Homo sapiens) [2]) [µM]	Kd [3] [µM]	Kd [4] [µM]	Kd [5] [µM]	Kd [6] [µM]	Kd (SOS1 S4 (Homo sapiens) [7]) [µM]	Kd (SOS1 S2 (Homo sapiens) [8]) [µM]	Substance
730	37	250	71.5	37	580	208	–	–	GRB2 NSH3 (from UniProt P62993)
–	–	–	131	142	–	400	142	440	GRB2 CSH3 (from UniProt P62993)
